Literature values as cited in PMC7088015.
Where two headings read alike, the source gives them in different places.

Legend:
Details in all cases: free dipeptide in solution (not further stated)
Nterm [1] = test system: Nterm
Cterm = test system: Cterm
[2] = test system: His2 (position 1, -----H-----); assay: not stated
[3] = test system: Cterm (position 1, -----H-----); assay: not stated
Nterm [4] = assay: not stated

Substance | pKa (Nterm [1]) | pKa (Cterm) | pKa [2] | pKa [3] | pKa (Nterm [4])
Anserine (beta-alanyl-1-methyl-L-histidine) (natural dipeptide of skeletal muscle of birds, fish and cattle (first identified in goose muscle); source of the titrated material not stated) | 9.49 | 2.64 | – | – | –
Carnosine (beta-alanyl-L-histidine) (natural dipeptide of vertebrate skeletal muscle (discovered in cattle, Bos taurus); source of the titrated material not stated) | – | – | 6.83 | 2.77 | 9.66
